Measurements taken from PMC13200455.

How the values were obtained:
[1] = target: T1, USE1 (purified, His-USE1) (Homo sapiens, UniProt Q9H832 1-354); assay: equilibrium binding curve, one-site fit
[2] = target: T1, USE1 (purified, His-USE1); assay: ELONA titration
[3] = target: T1, USE1 (purified, His-USE1); assay: fluorescence/quencher displacement
[4] = target: T1, USE1 (purified, His-USE1); assay: Ni-NTA and streptavidin pull-down

T1 sequence (Q9H832 whole entry): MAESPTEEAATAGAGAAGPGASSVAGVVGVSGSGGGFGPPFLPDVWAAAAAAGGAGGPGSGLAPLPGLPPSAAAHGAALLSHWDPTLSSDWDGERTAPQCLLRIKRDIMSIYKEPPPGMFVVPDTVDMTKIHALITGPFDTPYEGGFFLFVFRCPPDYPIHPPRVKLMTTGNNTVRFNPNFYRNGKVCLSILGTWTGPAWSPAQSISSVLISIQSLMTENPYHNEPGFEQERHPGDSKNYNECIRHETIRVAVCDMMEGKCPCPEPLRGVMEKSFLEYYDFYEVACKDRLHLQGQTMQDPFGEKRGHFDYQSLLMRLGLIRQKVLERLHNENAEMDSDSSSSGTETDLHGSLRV

B1: Aptamer 3 (ssDNA)
DNA: CACCTAATACGACTCACTATAGCGGATCCGACAGAATGCCATCACCATGTCTAGACCTATTGGCTTTGCGACTGGCTCGAACAAGCTTGC
In the case of B1, the Kd [1] is reported as 90 ± 2.42 nM.

B2: Aptamer 2 (ssDNA)
DNA: CACCTAATACGACTCACTATAGCGGACAGGGCTGGTGTGGCTGGCGTCCGGCTCGAACAAGGCTGGTGTGGCTGGCGTTCTGGCTCGAACAAGCTTGC
B2 gave a Kd [1] of 32 ± 2.54 nM.

B3: Aptamer 1 (ssDNA)
DNA: CACCTAATACGACTCACTATAGCGGATCCGATGGGTGGGGGGGTGGGTAGGATCCGTTCGGGGTTTGGCATAGGGTCTGGCTCGAACAAGCTTGC
B3 was tested, and the Kd [1] was 10 ± 2.76 nM and the Kd [2] was 7.2 ± 2.91 nM.

B4: Aptamer 1 fluorescence/quencher probe (mixed)
DNA 1: CACCTAATACGACTCACTATAGCGGATCCGATGGGTGGGGGGGTGGGTAGGATCCGTTCGGGGTTTGGCATAGGGTCTGGCTCGAACAAGCTTGC
DNA 2: GCAAGCTTGTTCGAGCCAG
DNA 3: CCCTATGCCAAAC
B4: binds [3].

CACCTAACACGATTCACTATAGCTCGGGGTTTGGCA (ssDNA) [Aptamer 1e]: binds [4].
